Here are results for one substance from article PMC5861098.

The assay deals with S. pombe Dcp2(1–243) (S. pombe) (UniProt O13828).
Chain of UniProt O13828 (O13828 1-243): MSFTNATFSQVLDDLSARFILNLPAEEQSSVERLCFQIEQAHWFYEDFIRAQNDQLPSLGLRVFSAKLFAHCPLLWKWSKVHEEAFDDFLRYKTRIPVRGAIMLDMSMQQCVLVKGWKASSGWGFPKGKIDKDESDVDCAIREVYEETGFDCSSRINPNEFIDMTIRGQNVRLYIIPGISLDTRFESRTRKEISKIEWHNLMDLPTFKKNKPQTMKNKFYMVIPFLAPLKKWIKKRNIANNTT

Sp Edc1 (155–180) peptide came in with a kmax of single-turnover in vitro decapping of a capped 29-mer RNA by Sp Dcp1–Dcp2(1–243) (m7 in complex with m6), with and without Edc1(155–180) peptide (50 µM) of 10 fold.
